Literature values, collected in patent US8501705B2, “Methods and materials for treating autoimmune and/or complement mediated diseases and conditions” (The Board of Regents of the University of Texas System, priority 2003, dated 2013).

Biological target: C3 (Mus musculus, UniProt P01027)
Conditions: inhibition of C3

Sequence of C3 (P01027 25-1663): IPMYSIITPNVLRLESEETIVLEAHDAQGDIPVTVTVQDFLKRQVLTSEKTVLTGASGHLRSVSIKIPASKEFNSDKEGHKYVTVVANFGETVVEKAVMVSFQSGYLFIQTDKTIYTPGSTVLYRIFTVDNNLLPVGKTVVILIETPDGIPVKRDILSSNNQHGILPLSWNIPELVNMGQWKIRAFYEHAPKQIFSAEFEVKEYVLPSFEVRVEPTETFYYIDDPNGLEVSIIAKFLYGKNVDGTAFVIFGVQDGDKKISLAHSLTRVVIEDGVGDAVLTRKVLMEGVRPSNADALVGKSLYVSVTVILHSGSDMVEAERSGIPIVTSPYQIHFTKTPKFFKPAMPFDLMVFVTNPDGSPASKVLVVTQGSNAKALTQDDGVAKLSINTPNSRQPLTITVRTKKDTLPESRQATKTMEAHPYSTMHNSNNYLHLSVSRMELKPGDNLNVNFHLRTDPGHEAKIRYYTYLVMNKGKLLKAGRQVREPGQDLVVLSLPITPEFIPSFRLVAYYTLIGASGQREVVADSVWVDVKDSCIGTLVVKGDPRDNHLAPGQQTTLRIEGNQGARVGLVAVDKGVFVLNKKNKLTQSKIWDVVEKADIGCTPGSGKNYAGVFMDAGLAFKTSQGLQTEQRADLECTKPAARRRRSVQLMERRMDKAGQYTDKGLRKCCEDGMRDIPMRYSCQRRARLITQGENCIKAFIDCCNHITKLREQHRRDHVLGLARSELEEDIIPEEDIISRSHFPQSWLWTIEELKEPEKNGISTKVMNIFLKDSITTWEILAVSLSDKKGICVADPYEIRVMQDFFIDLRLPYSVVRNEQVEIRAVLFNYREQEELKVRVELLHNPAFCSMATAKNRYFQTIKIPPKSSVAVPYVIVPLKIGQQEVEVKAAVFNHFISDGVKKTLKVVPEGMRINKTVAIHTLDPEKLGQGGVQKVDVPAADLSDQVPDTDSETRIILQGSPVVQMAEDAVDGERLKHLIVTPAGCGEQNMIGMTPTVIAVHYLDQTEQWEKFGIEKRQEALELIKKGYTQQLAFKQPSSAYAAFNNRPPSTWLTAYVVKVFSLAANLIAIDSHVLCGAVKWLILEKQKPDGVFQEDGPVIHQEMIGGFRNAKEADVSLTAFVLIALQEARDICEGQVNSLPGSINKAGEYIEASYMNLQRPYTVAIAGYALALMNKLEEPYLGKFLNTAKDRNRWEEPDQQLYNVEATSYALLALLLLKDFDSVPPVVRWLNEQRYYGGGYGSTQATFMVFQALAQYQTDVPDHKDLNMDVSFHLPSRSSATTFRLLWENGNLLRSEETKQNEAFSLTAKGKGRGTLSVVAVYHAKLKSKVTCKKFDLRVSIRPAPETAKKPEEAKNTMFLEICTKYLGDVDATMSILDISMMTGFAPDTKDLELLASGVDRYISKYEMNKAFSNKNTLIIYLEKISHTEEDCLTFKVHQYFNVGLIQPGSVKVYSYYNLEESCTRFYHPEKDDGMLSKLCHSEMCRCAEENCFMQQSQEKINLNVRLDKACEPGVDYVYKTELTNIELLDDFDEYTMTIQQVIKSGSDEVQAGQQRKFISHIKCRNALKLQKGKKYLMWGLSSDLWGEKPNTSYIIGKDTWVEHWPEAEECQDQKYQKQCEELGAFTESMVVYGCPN

## cobra venom factor
  EAMG disease induction: inhibits disease induction
